Changes are numbered by the printed parent chain.
B1: 3H7-6 (antibody, V domains shown)
VH: EVQLVESGGGLVQPGRSLRLSCAASGFTFYDYAMHWVRQAPGKGLEWVSGISWNSGYIGYADSVKGRFTISRDNAKNSLYLQMNSLRAEDTALYYCAKDNSYGKFYYGLDVWGQGTTVTVSS
VL: EIVMTQSPATLSVSPGERTTLSCRASQSVSSNLAWYLQKPGQAPRLLIYGASTRATGIPARFSGSGSGTEFILTISSLQSEDFAVYYCQQYNNWPITFGQGTRLEIK
notes: Fully human IgG, constant region not specified; also called 3H7-6N
B2: 3B9-10 (antibody, V domains shown)
VH: EVQLVESGGGLVQPGRSLRLSCVASGFTFNDYAMHWVRQAPGKGLEWVSVISWNSDSIGYADSVKGRFTISRDNAKNSLYLQMHSLRAEDTALYYCAKDNHYGSGSYYYYQYGMDVWGQGTTVTVSS
VL: B1 VL with T19A, L37Q, A51T, I72T, I96L, Q100G, R103K, L104V
notes: Fully human IgG, constant region not specified; also called 3B9-10N
B3: 9C3-8 (antibody, V domains shown)
VH: B2 VH with V23A, T28S, N30H, V50G, I58L, H84N, Y107H, Q111K
VL: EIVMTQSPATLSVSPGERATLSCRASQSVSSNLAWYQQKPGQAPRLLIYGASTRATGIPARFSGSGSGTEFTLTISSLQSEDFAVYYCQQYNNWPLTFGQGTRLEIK
notes: Fully human IgG, constant region not specified; also called 9C3-8N
B4: 2C11-4 (antibody, V domains shown)
VH: EVQLVESGGGLVQPGRSLRLSCAASGFTFRDYAMHWVRQGPGKGLEWVSGISWNTDYIGYADSVKGRFTISRDNAKNSLYLQMNSLRPEDTALYYCAKDARYGRDNYYGMDVWGQGTTVTVSS
VL: EIVLTQSPATLSLSPGERATLSCRASQSVSRYLAWYQQKPGQAPRLLIHDASNRATGIPARFSGSGSGTDFTLTITSLEPEDFVVYYCQQRSDWPITFGQGTRLEIK
notes: Fully human IgG, constant region not specified; also called 2C11-4N
B5: 9H4-12 (antibody, V domains shown)
VH: EVQLVESGGGLVQPGRSLRLSCAASGFTFDDYAMHWVRQVPGKGLEWVSGISWNSGSIGYADSVKGRFTISRDNAKNSLYLQMNSLRAEDTALYYCAKDMGYGNYYHYGMDVWGQGTTVTVSS
VL: B4 VL with E1D, R31S, H49C, N53H, G57R, T76S, V84A, D93N
notes: Fully human IgG, constant region not specified; also called 9H4-12N
B6: 7E1-13 (antibody, V domains shown)
VH: EVQLVESGGGLVQPGRSLRLSCTASGFTFGDFPMHWVRQAPGKGLEWVSGITWNSGSIVYADSVKGRFTISRDNAKNSLYLQMNSLRTEDTALYYCAKDSHYGSGNFYYYYYGMDVWGQGTTVTVSS
VL: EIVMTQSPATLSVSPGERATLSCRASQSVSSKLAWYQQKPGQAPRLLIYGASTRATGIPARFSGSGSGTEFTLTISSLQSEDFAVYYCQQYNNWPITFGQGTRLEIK
notes: Fully human IgG, constant region not specified; also called 7E1-13N

molecular target: T1, human CD20 (human, UniProt P11836 1-297); test: cell-based or functional assay
T1 sequence: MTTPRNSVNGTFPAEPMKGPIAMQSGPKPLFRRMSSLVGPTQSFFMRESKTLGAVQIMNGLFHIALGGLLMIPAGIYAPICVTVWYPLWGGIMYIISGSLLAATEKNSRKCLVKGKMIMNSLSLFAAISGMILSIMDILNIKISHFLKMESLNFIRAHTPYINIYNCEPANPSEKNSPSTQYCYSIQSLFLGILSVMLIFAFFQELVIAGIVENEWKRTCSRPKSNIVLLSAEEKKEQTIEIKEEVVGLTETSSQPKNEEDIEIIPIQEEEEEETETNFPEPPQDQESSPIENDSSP

Row | Binder | % Cytotoxicity (CDC, Daudi), 0 hour [%] | % Cytotoxicity (CDC, Daudi), 1 hour [%] | % Cytotoxicity (CDC, Daudi), 6 hour [%]
1 | B1 | 97.5 | 94 | 67.6

Molecular target: T2, mutant human CD20 #9 (N163D, N166D) (human, UniProt P11836 1-297)
T2 construct: Stably expressed on MG87 cells
T2 chain: T1 sequence with N163D, N166D
Test: FACS, mutant-hCD20 MG87 cells; 100%=best antibody
Experimental: (§1) Briefly, approximately 1×10⁶ cells from each stably transfected cell line expressing a mutant human CD20 were collected and incubated with each anti-human antibody, at 10 μg/ml, on ice for 1 hr, followed by incubation with APC-conjugated goat anti-human IgG (Jackson Immunolabs), at 10 μg/ml, on ice for 45 min. For each antibody, binding to each mutant human CD20 was assessed by flow cytometry.

Row | Percent of Binding to Mutant Human CD20 [%] | Binder
2 | 4 | B2
3 | 3 | B1
4 | 3 | B3
5 | 3 | B4
6 | 4 | B5
7 | 4 | B6

molecular target: T3, mutant human CD20 #5 (P172S) (human, UniProt P11836 1-297); test: FACS, mutant-hCD20 MG87 cells; 100%=best antibody
T3 construct: Stably expressed on MG87 cells
T3 sequence: T1 sequence with P172S
Experimental: as §1

Row | Percent of Binding to Mutant Human CD20 [%] | Binder
8 | 72 | B2
9 | 45 | B1
10 | 76 | B3
11 | 30 | B4
12 | 2 | B5
13 | 85 | B6

Molecular target: T4, mutant human CD20 #6 (Y77F, N166D) (human, UniProt P11836 1-297)
T4 construct: Stably expressed on MG87 cells
T4 chain: T1 sequence with Y77F, N166D
Test: FACS, mutant-hCD20 MG87 cells; 100%=best antibody
Experimental: as §1

Row | Percent of Binding to Mutant Human CD20 [%] | Binder
14 | 1 | B2
15 | 0 | B1
16 | 0 | B3
17 | 1 | B4
18 | 1 | B5
19 | 1 | B6

Molecular target: T5, mutant human CD20 #3 (A170S, P172S) (human, UniProt P11836 1-297)
T5 construct: Stably expressed on MG87 cells
T5 chain: T1 sequence with A170S, P172S
Test: FACS, mutant-hCD20 MG87 cells; 100%=best antibody
Experimental: as §1

Row | Percent of Binding to Mutant Human CD20 [%] | Binder
20 | 67 | B2
21 | 43 | B1
22 | 84 | B3
23 | 11 | B4
24 | 0 | B5
25 | 95 | B6

molecular target: T1, human CD20; test: cell-based or functional assay; remark: another data set of the same source

Row | Binder | % Cytotoxicity (CDC, Daudi), 0 hour [%] | % Cytotoxicity (CDC, Daudi), 1 hour [%] | % Cytotoxicity (CDC, Daudi), 6 hour [%]
26 | B2 | 98.4 | 97.9 | 82.2
27 | B3 | 98.7 | 98.5 | 76.9
28 | B4 | 29.1 | 14 | 22.4
29 | B5 | 43.2 | 17.4 | 23.1
30 | B6 | 98.1 | 98.5 | 89.3

molecular target: T1, human CD20; test: cell-based or functional assay; remark: another data set of the same source

Row | CDC, Daudi EC50 [nM] | CDC, RL EC50 [nM] | Binder
31 | 1.86 | 8.84 | B2
32 | 0.44 | 3.66 | B1
33 | 2.22 | 11.1 | B3
34 | > 50 | 5.19 | B4
35 | 51.1 | 29.6 | B5
36 | 1.59 | 5.81 | B6
